Data as given in PMC7045587.
Entries after “also recorded” stand apart in the source; their conditions may differ.

B1: CTendo45: L47T (protein)
parent chain: MHLSQLALPLLLAAGAHAQGAQGTGRTTRYWDCCKPSCAWPGKSNALQPVQTCNAQDQPLNDGGNTRSGCDSGGSAFMCSNQSPWALNETLSYGWAAVRIAGQSEFNWCCACYELTFTSGPVAGKKMIVQATNTGGDLGSNHFDIAIPGGGVGIFNACTQQYGAPPNGWGERYGGIRSRSECDSFPEALKAGCYWRFDWFLGADNPDVSFKQVACPAAITAKSKCVRQRDVIDQTPTGPEIVPTWTP
B2: CTendo45: G63T (protein)
parent chain: B1 parent chain
B3: CTendo45: Q56T (protein)
parent chain: B1 parent chain
B4: CTendo45: R67S (protein)
parent chain: B1 parent chain
B5: CTendo45: T90A (protein)
parent chain: B1 parent chain
B6: CTendo45: F143T (protein)
parent chain: B1 parent chain
B7: CTendo45: F143S (protein)
parent chain: B1 parent chain
B8: CTendo45: W169S (protein)
parent chain: B1 parent chain

assay: thermal inactivation half-life at 80 °C; details: glycan gained; control: wild type

Question: For B1, which “stability_or_folding, half_life” value is on record?
Answer: increases, 230 vs 150; also recorded: increases, 210 vs 130

Question: Which “stability_or_folding, half_life” value does the source give for B2 here?
Answer: decreases, 130 vs 150; also recorded: decreases, 110 vs 130

Question: Which “stability_or_folding, half_life” value does the source give for B3 here?
Answer: decreases, 110 vs 150; also recorded: decreases, 100 vs 130

Question: Which “stability_or_folding, half_life” value does the source give for B4 here?
Answer: increases, 190 vs 150; also recorded: increases, 160 vs 130

same assay, conditions: glycan lost; control: wild type

Question: With B5 as the protein, how does the “stability_or_folding, half_life” value read?
Answer: increases, 260 vs 150; also recorded: increases, 230 vs 130

assay: Michaelis-Menten kinetics, 60 °C, pH 4; details: glycan gained; control: wild type

Question: Which “enzymatic_activity, kcat_Km” value does the source give for B1 here?
Answer: increases, 74.65 ± 1.36 vs 62.06 ± 1.25; also recorded: increases, 192.43 ± 1.85 vs 138.46 ± 2.07

Question: For B3, which “enzymatic_activity, kcat_Km” value is on record?
Answer: increases, 70.67 ± 1.74 vs 62.06 ± 1.25; also recorded: increases, 177.29 ± 1.47 vs 138.46 ± 2.07

Question: For B4, which “enzymatic_activity, kcat_Km” value is on record?
Answer: increases, 83.49 ± 1.25 vs 62.06 ± 1.25; also recorded: increases, 198.76 ± 2.17 vs 138.46 ± 2.07

same assay, conditions: glycan lost; control: wild type

Question: Which “enzymatic_activity, kcat_Km” value does the source give for B5 here?
Answer: increases, 97.54 ± 2.13 vs 62.06 ± 1.25; also recorded: increases, 217.90 ± 2.83 vs 138.46 ± 2.07

assay: activity across pH 3-9; details: glycan gained; control: wild type

Question: For B1, which “other: optimal pH of activity” value is on record?
Answer: no change

Question: For B2, which “other: optimal pH of activity” value is on record?
Answer: no change

Question: Which “other: optimal pH of activity” value does the source give for B3 here?
Answer: no change

Question: Which “other: optimal pH of activity” value does the source give for B6 here?
Answer: no change

Question: For B7, which “other: optimal pH of activity” value is on record?
Answer: no change

Question: For B8, which “other: optimal pH of activity” value is on record?
Answer: no change

Question: Which “other: optimal pH of activity” value does the source give for B4 here?
Answer: no change

same assay, conditions: glycan lost; control: wild type

Question: With B5 as the protein, how does the “other: optimal pH of activity” value read?
Answer: no change

assay: thermal inactivation half-life at 90 °C; details: glycan gained; control: wild type

Question: Which “stability_or_folding, half_life” value does the source give for B1 here?
Answer: increases, 55 vs 35; also recorded: increases, 45 vs 28

Question: With B2 as the protein, how does the “stability_or_folding, half_life” value read?
Answer: decreases, 25 vs 35; also recorded: decreases, 20 vs 28

Question: With B3 as the protein, how does the “stability_or_folding, half_life” value read?
Answer: decreases, 20 vs 35; also recorded: decreases, 15 vs 28

Question: Which “stability_or_folding, half_life” value does the source give for B4 here?
Answer: increases, 45 vs 35; also recorded: increases, 35 vs 28

same assay, conditions: glycan lost; control: wild type

Question: With B5 as the protein, how does the “stability_or_folding, half_life” value read?
Answer: increases, 65 vs 35; also recorded: increases, 50 vs 28

assay: protein yield after purification from P. pastoris; details: glycan gained; control: wild type

Question: With B1 as the protein, how does the expression_or_secretion read?
Answer: no change

Question: For B2, which expression_or_secretion is on record?
Answer: no change

Question: With B3 as the protein, how does the expression_or_secretion read?
Answer: no change

Question: For B6, which expression_or_secretion is on record?
Answer: no change

Question: With B7 as the protein, how does the expression_or_secretion read?
Answer: no change

Question: For B8, which expression_or_secretion is on record?
Answer: no change

Question: With B4 as the protein, how does the expression_or_secretion read?
Answer: no change

same assay, conditions: glycan lost; control: wild type

Question: With B5 as the protein, how does the expression_or_secretion read?
Answer: no change

assay: activity at 30-90 °C; details: glycan gained; control: wild type

Question: With B1 as the protein, how does the “other: optimal temperature of activity” value read?
Answer: no change

Question: For B2, which “other: optimal temperature of activity” value is on record?
Answer: no change

Question: For B3, which “other: optimal temperature of activity” value is on record?
Answer: no change

Question: For B6, which “other: optimal temperature of activity” value is on record?
Answer: no change

Question: Which “other: optimal temperature of activity” value does the source give for B7 here?
Answer: no change

Question: With B8 as the protein, how does the “other: optimal temperature of activity” value read?
Answer: no change

Question: For B4, which “other: optimal temperature of activity” value is on record?
Answer: no change

same assay, conditions: glycan lost; control: wild type

Question: Which “other: optimal temperature of activity” value does the source give for B5 here?
Answer: no change

assay: DNS reducing-sugar assay, 60 °C; details: glycan gained; control: wild type

Question: For B1, which “enzymatic_activity, other: specific activity” value (from here on “enzymatic_activity, other”) is on record?
Answer: increases, 1.36 ± 0.06 vs 1.21 ± 0.08; also recorded: increases, 2.17 ± 0.08 vs 2.07 ± 0.14

Question: With B2 as the protein, how does the “enzymatic_activity, other” value read?
Answer: decreases, 0.91 ± 0.08 vs 1.21 ± 0.08; also recorded: decreases, 1.71 ± 0.11 vs 2.07 ± 0.14

Question: With B3 as the protein, how does the “enzymatic_activity, other” value read?
Answer: increases, 1.28 ± 0.10 vs 1.21 ± 0.08; also recorded: no change, 2.09 ± 0.15 vs 2.07 ± 0.14

Question: With B4 as the protein, how does the “enzymatic_activity, other” value read?
Answer: increases, 1.58 ± 0.12 vs 1.21 ± 0.08; also recorded: increases, 2.62 ± 0.13 vs 2.07 ± 0.14

same assay, conditions: glycan lost; control: wild type

Question: For B5, which “enzymatic_activity, other” value is on record?
Answer: increases, 2.24 ± 0.18 vs 1.21 ± 0.08; also recorded: increases, 3.39 ± 0.21 vs 2.07 ± 0.14

assay: residual activity after 200 min at 30-90 °C; details: glycan gained; control: wild type

Question: With B1 as the protein, how does the stability_or_folding read?
Answer: increases

Question: With B2 as the protein, how does the stability_or_folding read?
Answer: decreases

Question: Which stability_or_folding does the source give for B3 here?
Answer: decreases

Question: With B4 as the protein, how does the stability_or_folding read?
Answer: increases

same assay, conditions: glycan lost; control: wild type

Question: With B5 as the protein, how does the stability_or_folding read?
Answer: increases
